Measurements taken from patent US11702469B2, “Recombinant EGFL7, EGFL7 antibodies, and uses thereof” (Ohio State Innovation Foundation, priority 2017, dated 2023).

Tests used:
[1] = system: AML cell lines; assay: Apoptosis (AnnexinV/7AAD) in AML cell lines; assay type: cell-based, human; settings: 50 μg/ml, forty-eight hours, vs IgG control
Experimental: FIG. 9. […] Forty-eight hours after IgG control vs. @E7 antibody treatment (50 μg/ml) of AML cell lines apoptosis was evaluated by AnnexinV/7AAD staining. * indicates P<0.05, ** indicates P<0.01.
For the evaluation of apoptosis, cells were stained with Annexin V and 7-AAD as previously described^16, 21 For the evaluation of cell proliferation, AML cell lines were incubated with BrdU, fixed, permeabilized and stained with APC-conjugated anti-BrdU antibody, according to the instructions of the manufacturer (BD Biosciences) and as previously described^16, 21 The proliferating fraction of the cells (i.e., the BrdU positive cells) was evaluated with flow cytometry (LSRII, BD Biosciences). For cell differentiation analysis, cells were stained with an anti-CD11B antibody (BD Biosciences) and analyzed by flow cytometry.

[2] = system: NICD; assay: NICD immunoblot in primary AML blasts; assay type: cell-based, human; settings: 100 μg/ml, 2 hrs, n=3, vs IgG
Experimental: FIG. 23A-23E. EGFL7 suppresses NOTCH signaling in human AML patient blasts. (FIG. 23A) Primary blasts from AML patients (n=3) were cultured in SFEM medium with 2% BSA in the presence or absence (Unstim) of 0.25 μM rEGFL7 for 4 h. Total proteins were extracted for immunoblotting of NICD (cleaved NOTCH1) with GAPDH as loading control. (FIG. 23B) Total RNA was extracted for quantitative real time (qRT-PCR) analysis of HES1 mRNA with β-ACTIN as internal control. *p<0.05 vs un-stimulated control (Unstim). (FIG. 23C) qRT-PCR for NOTCH2 mRNA at 4 h and 24 h after stimulation of primary AML blasts with 0.25 uM rEGFL7 or unstim controls. (FIG. 23D) Primary blasts from AML patients (n=3) were cultured in SFEM medium in the absence or presence of 100 μg/ml of normal IgG or anti-human EGFL7 antibody for 2 h. Total protein was extracted for immunoblotting of NICD with GAPDH as loading control. […] Total RNA was extracted for quantitative real time RT-PCR analysis of HES1 mRNA with β-ACTIN as internal control. *p<0.05, ***p<0.001 vs IgG.
Cells were lysed in 100 μl of Pierce RIPA buffer (Cat. #8990, Thermo Scientific) supplemented with protease and phosphatase inhibitors (Roche) on ice for 20 min. […] Immunoreactive bands were detected using ECL Select Western Blotting Detection Reagent (GE Healthcare). […]

B1: Parsatuzumab: Anti-human EGFL7 therapeutic antibody (Parsatuzumab) obtained from Creative Biolabs; blocking monoclonal antibody (antibody, chains of the INN, looked up, V domains shown)
VH: EVQLVESGGGLVQPGGSLRLSCAASGYTFIDYYMNWVRQAPGKGLEWVGDINLDNSGTHYNQKFKGRFTISRDKSKNTAYLQMNSLRAEDTAVYYCAREGVYHDYDDYAMDYWGQGTLVTVSS
VL: DIQMTQSPSSLSASVGDRVTITCRTSQSLVHINAITYLHWYQQKPGKAPKLLIYRVSNRFSGVPSRFSGSGSGTDFTLTISSLQPEDFATYYCGQSTHVPLTFGQGTKVEIK
apoptosis (AnnexinV/7AAD) [1]: increased apoptosis
NICD levels [2]: significant increases in NICD levels
